Reference: PMC9812933

Experiments:
[1] = target: CheA (Escherichia coli) (UniProt P07363); details: cited from earlier work
[2] = target: cytoplasmic fragment of the E coli Asp receptor (CF4Q) (E. coli); assay: co-sedimentation

Row | Molecule | Kd [1] | fraction of CheA bound [2]
1 | CheA (from UniProt P07363) | 490 nM | 
2 | chemotaxis histidine kinase (CheA) (enzyme) MSMDISDFYQTFFDEADELLADMEQHLLVLQPEAPDAEQLNAIFRAAHSIKGGAGTFGFSVLQETTHLMENLLDEARRGEMQLNTDIINLFLETKDIMQEQLDAYKQSQEPDAASFDYICQALRQLALEAKGETPSAVTRLSVVAKSEPQDEQSRSQSPRRIILSRLKAGEVDLLEEELGHLTTLTDVVKGADSLSAILPGDIAEDDITAVLCFVIEADQITFETVEVSPKISTPPVLKLAAEQAPTGRVEREKTTRSNESTSIRVAVEKVDQLINLVGELVITQSMLAQRSSELDPVNHGDLITSMGQLQRNARDLQESVMSIRMMPMEYVFSRYPRLVRDLAGKLGKQVELTLVGSSTELDKSLIERIIDPLTHLVRNSLDHGIELPEKRLAAGKNSVGNLILSAEHQGGNICIEVTDDGAGLNRERILAKAASQGLTVSENMSDDEVAMLIFAPGFSTAEQVTDVSGRGVGMDVVKRNIQKMGGHVEIQSKQGTGTTIRILLPLTLAILDGMSVRVADEVFILPLNAVMESLQPREADLHPLAGGERVLEVRGEYLPIVELWKVFNVAGAKTEATQGIVVILQSGGRRYALLVDQLIGQHQVVVKNLESNYRKVPGISAATILGDGSVALIVDVSALQAINREQRMANTAA |  | 88%
